Test results taken from paper PMC10402096 (bioRxiv, 2023).

Legend:
[1] = target: recombinant 6His-TTLL12 (Tubulin Tyrosine Ligase-Like 12) (UniProt Q14166); test: pull-down
recombinant GST-Rab19 = target: T1, recombinant GST-Rab19 (UniProt A4D1S5 1-217); test: pull-down
T1 sequence (looked up): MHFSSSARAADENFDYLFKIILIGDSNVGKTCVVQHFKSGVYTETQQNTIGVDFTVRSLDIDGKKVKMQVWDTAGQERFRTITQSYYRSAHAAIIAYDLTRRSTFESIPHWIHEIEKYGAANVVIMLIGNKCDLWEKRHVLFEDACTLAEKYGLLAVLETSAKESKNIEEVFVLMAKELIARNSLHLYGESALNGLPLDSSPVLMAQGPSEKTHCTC

Molecule: purified porcine brain tubulin (α/β-tubulin heterodimer, kept unpolymerized at 4°C) (from UniProt P02550 1-451; P02554 1-445) (complex)
- fold increase in tubulin co-precipitation with Ni-beads when TTLL12 is present [1]: 3 fold

B1: recombinant 6His-TTLL12 (Tubulin Tyrosine Ligase-Like 12) (natural protein, UniProt Q14166 1-644, looked up)
chain: MEAERGPERRPAERSSPGQTPEEGAQALAEFAALHGPALRASGVPERYWGRLLHKLEHEVFDAGEVFGIMQVEEVEEEEDEAAREVRKQQPNPGNELCYKVIVTRESGLQAAHPNSIFLIDHAWTCRVEHARQQLQQVPGLLHRMANLMGIEFHGELPSTEAVALVLEEMWKFNQTYQLAHGTAEEKMPVWYIMDEFGSRIQHADVPSFATAPFFYMPQQVAYTLLWPLRDLDTGEEVTRDFAYGETDPLIRKCMLLPWAPTDMLDLSSCTPEPPAEHYQAILEENKEKLPLDINPVVHPHGHIFKVYTDVQQVASSLTHPRFTLTQSEADADILFNFSHFKDYRKLSQERPGVLLNQFPCENLLTVKDCLASIARRAGGPEGPPWLPRTFNLRTELPQFVSYFQQRERWGEDNHWICKPWNLARSLDTHVTKSLHSIIRHRESTPKVVSKYIESPVLFLREDVGKVKFDIRYIVLLRSVRPLRLFVYDVFWLRFSNRAFALNDLDDYEKHFTVMNYDPDVVLKQVHCEEFIPEFEKQYPEFPWTDVQAEIFRAFTELFQVACAKPPPLGLCDYPSSRAMYAVDLMLKWDNGPDGRRVMQPQILEVNFNPDCERACRYHPTFFNDVFSTLFLDQPGGCHVTCLV
- fold increase in TTLL12 binding against the GST-only control (recombinant GST-Rab19): ~5 fold
